Data taken from patent publication US20230192860A1 (Bristol-Myers Squibb, published 2023).
Numbering of substitutions follows the chain as printed. Values belong to the binder of their own block, whether it stands above or below them.

Tests used:
[1] = biological target: T1, monovalent hVISTA-ECD (amino acids 32-193 of SEQ ID NO: 1 with a 7xHis tail) (human, UniProt Q9H7M9 33-193); test: SPR 37C, Ab on Protein A, hVISTA-ECD 100-0.78 nM, pH 6.0
T1 construct: analyte of the SPR assays; also called huVISTA-His; human VISTA-ECD
T1 sequence (Q9H7M9 other isoform, or with tags, fused parts or gaps limits assumed): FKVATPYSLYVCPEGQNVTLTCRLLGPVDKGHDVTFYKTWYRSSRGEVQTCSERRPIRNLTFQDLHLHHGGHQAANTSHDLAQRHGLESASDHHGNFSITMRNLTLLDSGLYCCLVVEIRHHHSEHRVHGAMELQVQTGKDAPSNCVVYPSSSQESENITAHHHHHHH
Procedure: (§1) For this assay, ‘029, ‘761 and ‘767were reformatted as hIgG1f isotype and were expressed as both standard hIgG1f and in hIgG1f afucosylated formats to compare against the hIgG1.3f Fc. An SPR kinetics assay was conducted to measure koff and KD binding affinity measurements for VISTA Abs at acidic and physiological pH using a Biacore® T100 instrument (GE Healthcare). […] Antibodies were diluted to 25 nM in PBST pH 7.4, and were captured across active biosensor flow cells at 5 ul/min for 45 seconds. A concentration series of 1600 - 0.78 nM (pH 7.4) and 100 - 0.78 nM (pH 6.0) monovalent hVISTA-ECD (SEQ ID NO: 325) was prepared running buffer, and was injected over the captured antibodies at 40 ul/min to measure association and dissociation. Two 15 second injections of 10 mM glycine pH 1.5 were used to regenerate the Protein A capture surface between assay cycles. Rate constants ka (kₒₙ) and kd (koff) were derived from reference flow cell and 0 nM blank-subtracted sensorgrams, and were fit to a 1:1 binding model in Biacore® T200 Evaluation Software v.2.0. The affinity constant, KD was calculated as the ratio of rate constants koff/kₒₙ for each VISTA antibody. Ratios of koff and KD at pH 7.4 / pH 6.0 were calculated to compare off-rate and affinity improvement at acidic pH relative to physiological pH.

[2] = biological target: T1, monovalent hVISTA-ECD (amino acids …); test: SPR 37C, Ab on Protein A, hVISTA-ECD 50-0.2 nM, pH 6.0
Procedure: (§2) Surface plasmon resonance (SPR) analysis was performed to measure the association rates (defined as ka or kₒₙ, 1/Ms units), dissociation rates (defined as kd or koff, s⁻¹ units) and affinity constants (defined as KD, M units) for VISTA Abs at acidic and physiological pHs using a Biacore® T200 instrument (GE Healthcare). […] Antibodies were diluted to 20 nM in PBST pH 7.4, and were captured across active biosensor flow cells at 5 ul/min for 50 seconds. A concentration series of 50 - 0.2 nM monovalent hVISTA-ECD (SEQ ID NO: 325) was prepared in pH 7.4 and 6.0 running buffers, and was injected over the captured antibodies at 40 ul/min to measure association and dissociation. Two 15 second injections of 10 mM glycine pH 1.5 were used to regenerate the Protein A capture surface between assay cycles. Rate constants kₐ (kₒₙ) and kd (kₒff) were derived from reference flow cell and 0 nM blank-subtracted sensorgrams, and were fit to a 1:1 binding model in Biacore® T200 Evaluation Software v.2.0.

[3] = biological target: T1, monovalent hVISTA-ECD (amino acids …); test: SPR, pH 7.4 over pH 6.0
Procedure, shortened: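 Antibodies at 50 nM in PBST pH 7.4 were captured on a Protein A CM5 chip; an 8-point human VISTA titration (100 to 7.8 nM) in PBST at pH 7.4, 6.9, 6.45 or 6.0 was injected for 180 seconds at 30 µL/min. Kinetic constants came from 1:1 binding fits of sensorgrams.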

[4] = biological target: T1, monovalent hVISTA-ECD (amino acids …); test: SPR 37C, Ab on Protein A, hVISTA-ECD 1600-0.78 nM, pH 7.4
Procedure: as §1

[5] = biological target: T1, monovalent hVISTA-ECD (amino acids …); test: SPR 37C, Ab on Protein A, hVISTA-ECD 50-0.2 nM, column headed pH 7 (running buffer pH 7.4 in the text)
Procedure: as §2

[6] = biological target: T1, monovalent hVISTA-ECD (amino acids …); test: SPR 37C, pH 7.4 over pH 6.0
Procedure: as §1

[7] = biological target: T1, monovalent hVISTA-ECD (amino acids …); test: SPR 37C, pH 7.4 * over pH 6.0

Kd [1]: 7.2 nM | koff [1]: 0.0079 s⁻¹ | kon [1]: 1.1e+06 M⁻¹ s⁻¹ | koff [2]: 0.0048 s⁻¹ | 7.4 KD/ 6.0 KD [3]: 4.5 | 7.4 kd/ 6.0 kd [3]: 1.1 | Kd [4]: 42 nM | koff [4]: 0.0068 s⁻¹ | kon [4]: 160000 M⁻¹ s⁻¹ | koff [5]: 0.0091 s⁻¹ | KD ratio (7.4/6) [6]: 5.8 | kd ratio (7.4/6) [6]: 0.9
B1: P1-061029.IgG1.3 (antibody)
heavy: EVQLVESGGGLVQPGKSLRLSCAASGFTLDDYAMHWVRQAPGKGLEWVSGINWNSANIGYADSVKGRFTISRDNAKNSLYLQMNSLRTEDTALYYCAKVPGYSGGWIDAFDVWGQGTMVTVSSASTKGPSVFPLAPSSKSTSGGTAALGCLVKDYFPEPVTVSWNSGALTSGVHTFPAVLQSSGLYSLSSVVTVPSSSLGTQTYICNVNHKPSNTKVDKRVEPKSCDKTHTCPPCPAPEAEGAPSVFLFPPKPKDTLMISRTPEVTCVVVDVSHEDPEVKFNWYVDGVEVHNAKTKPREEQYNSTYRVVSVLTVLHQDWLNGKEYKCKVSNKALPAPIEKTISKAKGQPREPQVYTLPPSREEMTKNQVSLTCLVKGFYPSDIAVEWESNGQPENNYKTTPPVLDSDGSFFLYSKLTVDKSRWQQGNVFSCSVMHEALHNHYTQKSLSLSPG
light: not shown
notes: IgG1.3; also called P1-061029 (parent); P1-061029-18

KD ratio to pH 6.0 [7]: ~10000 | koff ratio to pH 6.0 [7]: ~63.6 | Kd [1]: 4.3 nM | koff [1]: 0.0016 s⁻¹ | kon [1]: 370000 M⁻¹ s⁻¹ | Kd [4]: 11000 nM | koff [4]: 0.042 s⁻¹ | kon [4]: 3800 M⁻¹ s⁻¹ | KD ratio (7.4/6) [6]: 2560 | kd ratio (7.4/6) [6]: 26.3
B2: P1-068761.IgG1.3 (antibody)
heavy: B1 heavy with D30E, Y32E, A56E, N57E, G104H, F110E
light: not shown
notes: IgG1.3; also called P1-068761-20; P1-068761 hIgG1.3f
